# Measurements as given in patent publication US20230035403A1, “Method For Determining Responsiveness To Prostate Cancer Treatment” (Janssen Biotech, Inc., priority 2020, published 2023).
# B1: P46 9-mer … (peptide)
# peptide: CPMSRLRLA
# modifications: here or on the partner: biotinylated heavy chain
# B2: P82 9-mer … (peptide)
# peptide: RVGNCKHLK
# modifications: here or on the partner: biotinylated heavy chain
# B3: P58 9-mer … (peptide)
# peptide: HVPKILSGK
# modifications: here or on the partner: biotinylated heavy chain
# B4: P22 9-mer … (peptide)
# peptide: QLIAMDSAI
# modifications: here or on the partner: biotinylated heavy chain
# B5: P87 9-mer … (peptide)
# peptide: FLFLLLPLS
# modifications: here or on the partner: biotinylated heavy chain
# B6: P56 9-mer … (peptide)
# peptide: RAKCKFSIL
# modifications: here or on the partner: biotinylated heavy chain
# B7: P73 9-mer … (peptide)
# peptide: LLERNSFEV
# modifications: here or on the partner: biotinylated heavy chain
# B8: P60 9-mer … (peptide)
# peptide: YLRRQKRLK
# modifications: here or on the partner: biotinylated heavy chain
# B9: P19 9-mer … (peptide)
# peptide: IPVLTRWPL
# modifications: here or on the partner: biotinylated heavy chain
# B10: P97 9-mer … (peptide)
# peptide: LMAQRLLLR
# modifications: here or on the partner: biotinylated heavy chain
# B11: P98 9-mer … (peptide)
# peptide: IVWWCPMSR
# modifications: here or on the partner: biotinylated heavy chain
# B12: P61 9-mer … (peptide)
# peptide: CYLGRQKRF
# modifications: here or on the partner: biotinylated heavy chain
# Molecular target: HLA-B*08:01 (human)
# Assay: UV-induced peptide exchange, HLA class I ELISA; Pos peptide = 100%
# Details: remark: other sources report otherwise
row,Binder,exchange rate with Pos peptide [%]
1,B1,14.5
2,B2,1.4
3,B3,5.3
4,B4,3.9
5,B5,3.1
6,B6,38
7,B7,2.6
8,B8,10.2
9,B9,14.5
10,B10,2.7
11,B11,2.4
12,B12,3.6
